Data from patent US12318427.

What was measured:
Experiment in all cases: cell_activity
[1] = test system: ZFP-TF SBS 57930 (artificial); details: AAV6 SYN1, human iPSC-derived neurons, 32 days, ELISA
[2] = test system: ZFP-TF SBS 65918 R(-5)Q in F1 and F5 (Qm5 phosphate contact mutants) (artificial); details: AAV6 SYN1, human iPSC-derived neurons, 32 days, ELISA; combined with 57890 >10-fold
[3] = test system: ZFP-TF SBS 57890 (artificial); details: AAV9 hSYN1 in humanized tau mice, 6 wk; mouse tau ~81%; human iPSC neurons tau protein reduced 2-fold (p208)

CGGCAGAAGGTGGGCGGTGGCGGCGGCG (double strand) [MAPT target site of 57930/65918]
activity (fold tau protein reduction) [1]: > 5
activity (fold tau protein reduction) [2]: > 2

TGGTGCTGGAGCTGGTGGGTGGCGGAGA (double strand) [MAPT target site of 57890]
activity (% human tau mRNA repression) [3]: 60
